Substitutions are numbered along the chain they refer to. Names and notes keep the numbering of the source. Values belong to the binder of their own block, whether it stands above or below them.
Assays:
[1] = target: human CLDN18.2 (human); assay: cell-based or functional assay
[2] = target: T1, Human CD3E (Acro, CDE-H5223) (human, UniProt P07766 23-126, biotinylated (mixed with biotin 1:3)); assay: BLI (Octet), biotinylated CD3 on SA sensor, 1:1 global fit;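 note: antibodies applied as analyte in 2-fold serial dilutions, with a 180 s association phase followed by a 300 s dissociation phase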
T1 construct: also called Human CD3Ec
Protocol: (§1) The binding kinetics between proteins and antibodies was analyzed by the Biolayer Interferometry (BLI) technique using an Octet Red 96e (Fortebio) system. Human CD3E (Acro, CDE-H5223), cynomolgus CD3E (Acro, CDE-C5226) and murine CD3E (Acro, CDE-M5256) were mixed with biotin (Thermo Scientific, A39257) in a molar ratio of 1:3. The mixture was incubated at 4° C. overnight, and then excess biotin was removed to obtain biotinylated CD3E. The rotation speed was set at 1000 rpm for the system. […] After being equilibrated in the buffer for 120 s, the SA sensor with captured CD3 was allowed to bind to 2-fold serially diluted antibodies. […] Finally, the SA sensor was immersed in a 10 mM glycine-hydrochloric acid solution at pH 1.5 for regeneration to elute the antibodies bound to the sensor. […] For the interactions of fast binding and fast dissociation, the “steady state” method was selected to fit the data to obtain KD(M) values.

[3] = target: T2, Biotinylated human CD3E&D (human, UniProt P07766 23-126; P04234 22-105, biotin label); assay: as above
T2 construct: also called CDD-H82W6
Protocol: as §1

[4] = target: T3, Cynomolgus CD3E (Acro, CDE-C5226) (cynomolgus, UniProt Q95LI5 22-117, biotinylated (mixed with biotin 1:3)); assay: as above
T3 sequence (looked up): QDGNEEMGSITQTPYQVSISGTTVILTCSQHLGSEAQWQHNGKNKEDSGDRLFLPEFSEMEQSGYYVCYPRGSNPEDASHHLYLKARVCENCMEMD
Protocol: as §1

[5] = target: T4, Biotinylated cynomolgus CD3E&D (cynomolgus, UniProt Q95LI5 22-117; Q95LI8 22-105, biotin label); assay: as above
T4 construct: also called CDD-C82W6
Protocol: as §1

[6] = target: T5, human CLDN9 (human, UniProt O95484 1-217); assay: FACS on HEK293 cells transiently expressing human CLDN9
T5 construct: whole, on cells; also called hCLDN9
T5 sequence (looked up): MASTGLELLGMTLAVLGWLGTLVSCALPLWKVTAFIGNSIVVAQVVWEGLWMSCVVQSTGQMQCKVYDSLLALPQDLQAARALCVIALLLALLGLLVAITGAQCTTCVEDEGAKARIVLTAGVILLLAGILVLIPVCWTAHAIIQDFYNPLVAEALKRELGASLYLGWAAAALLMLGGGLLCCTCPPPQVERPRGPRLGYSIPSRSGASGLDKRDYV
Protocol: Antibodies were assayed for binding affinity to human CLDN18.2 paralogous proteins by FACS (ACEA NovoCyte). CLDN1, CLDN2, CLDN3, CLDN4, CLDN6 and CLDN9 genes of the human CLDN18.2 paralogous family were transiently transfected into HEK293 cells. […] The cell density was adjusted to 10⁶ cells/mL, and 50 μL of the cell suspension was added to each well of a 96-well plate. An antibody was diluted to 60 nM with FACS buffer, and 50 μL of the antibody dilution was added to each well of the 96-well plate. After 2 h of incubation at 4° C., the plate was washed twice with FACS buffer. Then, an FACS buffer containing a secondary antibody was added. After 1 h of incubation at 4° C., the plate was washed twice with FACS buffer. The cells were resuspended in fixative solution, and run FACS.

[7] = target: Human FcRn (human, UniProt P55899 24-297; P61769 21-119); assay: BLI (Octet), antibody on FAB2G sensor, pH 6.0, 1:1 global fit; pH 6.0; 400-25 nM
Protocol: The binding kinetics between proteins and antibodies was analyzed by the Biolayer Interferometry (BLI) technique using an Octet Red 96e (Fortebio) system. The rotation speed was set at 1000 rpm for the system. […] After equilibrated in the buffer for 120 s, the FAB2G sensor was allowed to bind to 2-fold serially diluted human Fc receptor protein. Finally, the FAB2G sensor was immersed in a 10 mM glycine-hydrochloric acid solution at pH 1.5 for regeneration to elute the proteins bound to the sensor. The affinity assays of antibodies for FcRn were performed under the conditions of both pH 6.0 buffer and pH 7.4 buffer. […] For the interactions of fast binding and fast dissociation, the “steady state” method was selected to fit the data to obtain KD(M) values.

T4 sequence (Q95LI8 22-105, one chain of several): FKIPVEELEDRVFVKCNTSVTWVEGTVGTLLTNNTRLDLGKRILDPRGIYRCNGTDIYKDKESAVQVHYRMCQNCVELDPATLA
T1 sequence (P07766 23-126 limits assumed): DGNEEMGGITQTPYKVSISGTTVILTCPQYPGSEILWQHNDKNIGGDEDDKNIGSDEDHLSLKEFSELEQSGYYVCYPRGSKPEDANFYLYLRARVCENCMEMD
T2 sequence (P07766 23-126, chain 1 of 2): as the sequence (P07766 23-126 limits assumed) above
T2 sequence (P04234 22-105, chain 2 of 2): as the sequence (Q95LI8 22-105, one chain of several) above, with V5I, K15N, V20I, T32S, N33D, N34I, A64T, N74S, L83V counted along it

CDC, EC50 (nM), HEK293/hCLDN18.2 [1]: 37.1 nM | Kd [2]: 99 nM | koff [2]: 0.00978 s⁻¹ | kon [2]: 98900 M⁻¹ s⁻¹ | Kd [3]: 144 nM | koff [3]: 0.0122 s⁻¹ | kon [3]: 84700 M⁻¹ s⁻¹ | Kd [4]: 140 nM | koff [4]: 0.0105 s⁻¹ | kon [4]: 75100 M⁻¹ s⁻¹ | Kd [5]: 113 nM | koff [5]: 0.00965 s⁻¹ | kon [5]: 85700 M⁻¹ s⁻¹ | binding result [6]: no binding | Kd [7]: 200 nM | koff [7]: 0.0609 s⁻¹ | kon [7]: 305000 M⁻¹ s⁻¹
B1: PR006292 (bispecific antibody, human IgG1, lambda)
chain: EVQLVESGGGLVQPGGSLRLSCAASGFTFSSYWMHWVRQVPGKGLVWVSRISSDASRTIYADSVKGRFTISRDNAKNTLYLQMNSLRAEDTAVYYCARGEDHDILTGYPIRGQGTTVTVSSGGGGSGGGGSGGGGSEVQLVESGGGLVQPGGSLRLSCAASGFTFSSYWMHWVRQVPGKGLVWVSRISSDASRTIYADSVKGRFTISRDNAKNTLYLQMNSLRAEDTAVYYCARGEDHDILTGYPIRGQGTTVTVSSASEPKSSDKTHTCPPCPAPEAAGAPSVFLFPPKPKDTLMISRTPEVTCVVVDVSHEDPEVKFNWYVDGVEVHNAKTKPREEQYNSTYRVVSVLTVLHQDWLNGKEYKCKVSNKALPAPIEKTISKAKGQPREPQVCTLPPSREEMTKNQVSLSCAVKGFYPSDIAVEWESNGQPENNYKTTPPVLDSDGSFFLVSKLTVDKSRWQQGNVFSCSVMHEALHNHYTQKSLSLSPGK
heavy: EVQLVESGGGLVQPGGSLKLSCAASGFTFSTYAMNWVRQASGKGLEWVGRIRSKYNNYATYYADSVKDRFTISRDDSKNTAYLQMNSLKTEDTAVYYCTRHGNFGNSYVSWFAYWGQGTLVTVSSASTKGPSVFPLAPSSKSTSGGTAALGCLVKDYFPEPVTVSWNSGALTSGVHTFPAVLQSSGLYSLSSVVTVPSSSLGTQTYICNVNHKPSNTKVDKKVEPKSCDKTHTCPPCPAPEAAGAPSVFLFPPKPKDTLMISRTPEVTCVVVDVSHEDPEVKFNWYVDGVEVHNAKTKPREEQYNSTYRVVSVLTVLHQDWLNGKEYKCKVSNKALPAPIEKTISKAKGQPREPQVYTLPPCREEMTKNQVSLWCLVKGFYPSDIAVEWESNGQPENNYKTTPPVLDSDGSFFLYSKLTVDKSRWQQGNVFSCSVMHEALHNHYTQKSLSLSPGK
light: QAVVTQEPSLTVSPGGTVTLTCRSSTGAVTTSNYANWVQQKPGQAPRGLIGGTNKRAPWTPARFSGSLLGDKAALTLLGAQPEDEAEYFCALWYSNLWVFGGGTKLTVLGQPKAAPSVTLFPPSSEELQANKATLVCLISDFYPGAVTVAWKADSSPVKAGVETTTPSKQSNNKYAASSYLSLTPEQWKSHRSYSCQVTHEGSTVEKTVAPTECS
notes: structure 1; CD3 Fab from PR003886, CLDN18.2 VH from PR007245; IgG1 knob/hole, AAA (L234A, L235A, G237A)

Kd [2]: 151 nM | koff [2]: 0.0129 s⁻¹ | kon [2]: 85400 M⁻¹ s⁻¹ | Kd [3]: 132 nM | koff [3]: 0.0119 s⁻¹ | kon [3]: 90200 M⁻¹ s⁻¹ | Kd [4]: 165 nM | koff [4]: 0.0122 s⁻¹ | kon [4]: 74000 M⁻¹ s⁻¹ | Kd [5]: 152 nM | koff [5]: 0.00942 s⁻¹ | kon [5]: 62200 M⁻¹ s⁻¹ | binding result [6]: no binding | Kd [7]: 210 nM | koff [7]: 0.0608 s⁻¹ | kon [7]: 289000 M⁻¹ s⁻¹
B2: PR006384 (bispecific antibody, human IgG1, lambda)
chain: B1 chain with D54T, A55G, D190T, A191G
heavy: B1 heavy
light: B1 light
notes: structure 1; CD3 Fab from PR003886, CLDN18.2 VH from PR007246; AAA

Source: patent US20250340631A1 (HARBOUR BIOMED SHANGHAI, published 2025)
